Tests used:
[1] = molecular target: T1, mCAR L352A (Mus musculus, UniProt O35627, L352A); experiment: luciferase reporter gene activation assay (PBREM) in HepG2 cells, mCAR L352A mutant; type: cell-based; details: only in the presence of exogenous SRC-1
T1 construct: mCAR and hCAR expression vectors were constructed by cloning an entire mCAR; expressed in transfected cells; host or cells: HepG2
T1 sequence (O35627 1-358 L352A): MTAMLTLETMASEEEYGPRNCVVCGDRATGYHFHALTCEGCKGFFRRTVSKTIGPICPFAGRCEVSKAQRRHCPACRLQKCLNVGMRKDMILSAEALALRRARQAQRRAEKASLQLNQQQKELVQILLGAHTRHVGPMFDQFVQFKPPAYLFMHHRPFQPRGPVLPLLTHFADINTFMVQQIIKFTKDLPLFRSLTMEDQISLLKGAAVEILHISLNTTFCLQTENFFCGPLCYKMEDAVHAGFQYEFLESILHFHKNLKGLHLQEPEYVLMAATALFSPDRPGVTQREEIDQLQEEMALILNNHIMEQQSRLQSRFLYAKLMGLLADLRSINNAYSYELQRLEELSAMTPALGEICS
Text: To examine the role of Leu352 in mCAR activity, site-directed mutagenesis was used as described in EXAMPLES 2 and 6.

[2] = system: chimeric receptors mh159, mh224, mh315, mh345; experiment: luciferase reporter assay in HepG2 cells, chimeric receptors within the LBD; type: cell-based, mouse/human
[3] = molecular target: T2, mCART350M (Mus musculus, UniProt O35627, T350M); experiment: luciferase reporter assay in HepG2 cells, mutant mCART350M; type: cell-based
T2 construct: mCAR and hCAR expression vectors were constructed by cloning an entire mCAR; expressed in transfected cells; host or cells: HepG2
T2 sequence (O35627 1-358 T350M): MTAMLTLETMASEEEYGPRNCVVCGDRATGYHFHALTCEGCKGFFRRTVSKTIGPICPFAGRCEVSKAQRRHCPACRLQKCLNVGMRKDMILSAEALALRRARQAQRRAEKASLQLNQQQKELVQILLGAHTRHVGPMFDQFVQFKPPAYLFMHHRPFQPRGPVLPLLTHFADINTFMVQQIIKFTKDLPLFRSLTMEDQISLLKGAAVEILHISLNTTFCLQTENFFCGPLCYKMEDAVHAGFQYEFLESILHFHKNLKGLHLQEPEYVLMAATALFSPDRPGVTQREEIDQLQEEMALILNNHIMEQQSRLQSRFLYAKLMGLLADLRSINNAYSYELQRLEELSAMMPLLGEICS
Description: The transfected cells were then treated, and luciferase assays performed as described in EXAMPLE 1.
To determine if this effect could be disrupted by mutating Thr350 to a Met, the mCART350M mutant described in EXAMPLE 2 was used. The KN-62 repression was examined with and without the co-expression of SRC-1 (EXAMPLE 3).

[4] = molecular target: T3, mCAR (Mus musculus, UniProt O35627); experiment: cell-based transfection assay, (NR1)5-tk-luciferase reporter in HepG2 cells, wild-type mCAR; details: wild-type mCAR
T3 construct: mCAR and hCAR expression vectors were constructed by cloning an entire mCAR; expressed in transfected cells; host or cells: HepG2
T3 sequence (O35627 1-358): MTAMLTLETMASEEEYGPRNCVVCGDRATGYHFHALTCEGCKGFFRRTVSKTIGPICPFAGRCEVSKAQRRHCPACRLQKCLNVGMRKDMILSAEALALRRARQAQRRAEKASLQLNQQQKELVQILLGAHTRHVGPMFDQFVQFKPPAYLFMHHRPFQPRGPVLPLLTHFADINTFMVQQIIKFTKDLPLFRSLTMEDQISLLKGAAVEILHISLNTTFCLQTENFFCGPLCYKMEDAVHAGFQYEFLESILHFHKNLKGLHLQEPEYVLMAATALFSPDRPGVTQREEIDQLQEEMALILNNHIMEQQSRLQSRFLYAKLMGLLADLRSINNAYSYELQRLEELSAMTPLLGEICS
Text: mCAR and hCAR expression vectors were constructed by cloning an entire mCAR (GenBank Accession No: AF009327, deposited on Jul. 22, 1997; SEQ ID NO: 15) or hCAR (GenBank Accession No: Z30425, deposited on Mar. 8, 1994; SEQ ID NO: 17) coding sequence into BamHI and XhoI sites of pCR3 plasmid as described previously (Sueyoshi et al., J Biol Chem 274:6043-6, 1999). Polymerase chain reaction (PCR) was used to amplify the desired hCAR or mCAR fragment from the plasmid. The amplified fragments used for the chimeras were nucleotides encoding amino acids: 1 to 86 of mCAR and 77 to 348 of hCAR (mhh), 1 to 116 of mCAR and 107 to 348 of hCAR (mmh), 1 to 76 of hCAR and 87 to 358 of mCAR (hmm), 1 to 106 of hCAR and 117 to 358 of mCAR (hhm). These fragments were PCR amplified using pfu polymerase and enzymatically phosphorylated primers. The amplified fragments were ligated, and a second PCR amplification was performed on the ligated DNA with the primers for 5′ and 3′ end of the chimeric DNA. The resulting second PCR products were cloned into a pCR3 vector (Invitrogen) with newly created BamHI and XhoI sites at the 5′ and the 3′ ends, respectively.
A mouse SRC-1 cDNA corresponding to amino acid residues 633 to 1450 of SRC-1 (GenBank Accession No: U64828), was amplified and cloned into the EcoRI and Hind III site of pcDNA3.1/myc-His(−)B plasmid (Invitrogen), thereby generating the SRC-1-expression plasmid pcDNA3.1-SRC-1. Wild-type mCAR or mCART350M was co-transfected with or without the SRC-1-expression plasmid (0.1 μg) into HepG2 cells.
The KN-62 repression was examined with and without the co-expression of SRC-1 (EXAMPLE 3).

[5] = molecular target: wild-type mouse CAR (mCAR; nuclear orphan receptor constitutively active receptor / constitutive androstane receptor) (mouse); experiment: cell-based or functional assay
[6] = molecular target: mCAR T350M mutant (mouse); experiment: cell-based or functional assay
[7] = system: PB-responsive enhancer module (PBREM) luciferase reporter; experiment: constitutive activity of mutated CAR in luciferase reporter gene activation assay in HepG2 cells; details: mCAR mutants versus mCAR

## CN(C)CCCN1c2ccccc2Sc2ccc(Cl)cc21 [chloropromazine]
[1]
  activation of L352A mutant: activated

## CC(=O)[C@H]1CC[C@H]2[C@@H]3CCC4=CC(=O)CC[C@]4(C)[C@H]3CC[C@]12C [progesterone]
[2]
  repression of chimeric receptor activity: None of these chimeric receptors was repressed

## C[C@]12CC[C@H]3[C@@H](CCC4=CC(=O)CC[C@@]43C)[C@@H]1CC[C@@H]2O [testosterone]
[3]; HepG2 cells
  repression of mCART350M activity: not the T350M mutant
[4]; HepG2 cells, 24 hours treatment
  repression of mCAR activity (luciferase reporter): repressed

## mouse steroid receptor co-activator 1 (SRC-1), amino acid residues 633 to 1450 (from UniProt P70365 633-1447)
[5]
  trans-activation activity (NR1-luciferase reporter gene activity in co-transfected HepG2 cells, relative to DMSO-treated cells): 3 to 4 fold
[6]
  trans-activation activity (NR1-luciferase reporter gene activity in co-transfected HepG2 cells, relative to DMSO-treated cells): 3 to 4 fold

B1: SRC-1: co-activator steroid receptor co-activator 1, mouse residues 633 to 1450 expressed from pcDNA3.1-SRC-1 (protein)
chain: TSHKLVQLLTTTAEQQLRHADIDTSCKDVLSCTGTSSSASSNPSGGTCPSSHSSLTERHKILHRLLQEGSPSDITTLSVEPEKKDSVPASTAVSVSGQSQGSASIKLELDAAKKKESKDHQLLRYLLDKDEKDLRSTPNLCLDDVKVKVEKKEQMDPCNTNPTPMTKPAPEEVKLESQSQFTADLDQFDQLLPTLEKAAQLPSLCETDRMDGAVTGVSIKAEVLPASLQPTTARAAPRLSRLPELELEAIDNQFGQPGAGDQIPWANNTLTTINQNKPEDQCISSQLDELLCPPTTVEGRNDEKALLEQLVSFLSGKDETELAELDRALGIDKLVQGGGLDVLSERFPPQQATPPLMMEDRPTLYSQPYSSPSPTAGLSGPFQGMVRQKPSLGAMPVQVTPPRGTFSPNMGMQPRQTLNRPPAAPNQLRLQLQQRLQGQQQLMHQNRQAILNQFAANAPVGMNMRSGMQQQITPQPPLNAQMLAQRQRELYSQQHRQRQIIQQQRAMLMRHQSFGNNIPPSSGLPVQMGTPRLPQGAPQQFPYPPNYGTNPGTPPASTSPFSQLAANPEASLATRSSMVNRGMAGNMGGQFGAGISPQMQQNVFQYPGPGLVPQGEATFAPSLSPGSSMVPMPVPPPQSSLLQQTPPTSGYQSPDMKAWQQGTMGNNNVFSQAVQSQPAPAQPGVYNNMSITVSMAGGNANIQNMNPMMGQMQMSSLQMPGMNTVCSEQMNDPALRHTGLYCNQLSSTDLLKTDADGNQQVQQVQVFADVQCTVNLVGGDPYLNQPGPLGTQKPTSGPQTPQAQQKSLLQQLLTE
[3]; mCART350M, relative to DMSO-treated cells
  increase of trans-activation activity by co-expression: 3- to 4 fold
[4]; relative to DMSO-treated cells
  increase of trans-activation activity by co-expression: 3- to 4 fold

B2: T176V: mCAR with single mutation of Thr176 to valine (protein, UniProt O35627 1-358, looked up, variant T176V)
Nuclear receptor subfamily 1 …: MTAMLTLETMASEEEYGPRNCVVCGDRATGYHFHALTCEGCKGFFRRTVSKTIGPICPFAGRCEVSKAQRRHCPACRLQKCLNVGMRKDMILSAEALALRRARQAQRRAEKASLQLNQQQKELVQILLGAHTRHVGPMFDQFVQFKPPAYLFMHHRPFQPRGPVLPLLTHFADINVFMVQQIIKFTKDLPLFRSLTMEDQISLLKGAAVEILHISLNTTFCLQTENFFCGPLCYKMEDAVHAGFQYEFLESILHFHKNLKGLHLQEPEYVLMAATALFSPDRPGVTQREEIDQLQEEMALILNNHIMEQQSRLQSRFLYAKLMGLLADLRSINNAYSYELQRLEELSAMTPLLGEICS
[7]
  constitutive activity of mCAR: decreased

B3: T176L: mCAR with single mutation of Thr176 to leucine (protein, UniProt O35627 1-358, looked up, variant T176L)
Nuclear receptor subfamily 1 …: MTAMLTLETMASEEEYGPRNCVVCGDRATGYHFHALTCEGCKGFFRRTVSKTIGPICPFAGRCEVSKAQRRHCPACRLQKCLNVGMRKDMILSAEALALRRARQAQRRAEKASLQLNQQQKELVQILLGAHTRHVGPMFDQFVQFKPPAYLFMHHRPFQPRGPVLPLLTHFADINLFMVQQIIKFTKDLPLFRSLTMEDQISLLKGAAVEILHISLNTTFCLQTENFFCGPLCYKMEDAVHAGFQYEFLESILHFHKNLKGLHLQEPEYVLMAATALFSPDRPGVTQREEIDQLQEEMALILNNHIMEQQSRLQSRFLYAKLMGLLADLRSINNAYSYELQRLEELSAMTPLLGEICS
[7]
  constitutive activity of mCAR: decreased

B4: L352A: mCAR with Ala substitution of Leu352 (protein, UniProt O35627 1-358, looked up, variant L352A)
Nuclear receptor subfamily 1 …: MTAMLTLETMASEEEYGPRNCVVCGDRATGYHFHALTCEGCKGFFRRTVSKTIGPICPFAGRCEVSKAQRRHCPACRLQKCLNVGMRKDMILSAEALALRRARQAQRRAEKASLQLNQQQKELVQILLGAHTRHVGPMFDQFVQFKPPAYLFMHHRPFQPRGPVLPLLTHFADINTFMVQQIIKFTKDLPLFRSLTMEDQISLLKGAAVEILHISLNTTFCLQTENFFCGPLCYKMEDAVHAGFQYEFLESILHFHKNLKGLHLQEPEYVLMAATALFSPDRPGVTQREEIDQLQEEMALILNNHIMEQQSRLQSRFLYAKLMGLLADLRSINNAYSYELQRLEELSAMTPALGEICS
[7]
  constitutive activity of mCAR: decreased
